The chains are these.
T1: human FcγRIIaR extracellular domain with C-terminal His-tag (human, UniProt P12318 34-217)
T1 construct: also called human FcgRIIaR; FcγRIIa (type R)
T1 chain: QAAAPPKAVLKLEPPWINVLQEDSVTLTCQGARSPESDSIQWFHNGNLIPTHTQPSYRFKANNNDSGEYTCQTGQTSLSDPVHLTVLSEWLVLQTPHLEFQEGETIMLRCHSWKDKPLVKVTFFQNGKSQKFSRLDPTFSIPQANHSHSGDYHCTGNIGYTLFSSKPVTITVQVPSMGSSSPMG

T2: cynomolgus monkey FcγRIIa3 extracellular domain with C-terminal His-tag (cynomolgus monkey)
T2 construct: also called cyno FcgRIIa3; cynoFcγRIIa3
T2 chain: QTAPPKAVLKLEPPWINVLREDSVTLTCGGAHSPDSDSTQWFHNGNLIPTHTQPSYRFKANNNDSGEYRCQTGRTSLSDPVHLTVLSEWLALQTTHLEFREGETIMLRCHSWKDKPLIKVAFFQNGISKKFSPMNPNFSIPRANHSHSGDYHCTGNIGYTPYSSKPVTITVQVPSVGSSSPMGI

T3: cynomolgus monkey FcγRIIa2 extracellular domain with C-terminal His-tag (cynomolgus monkey)
T3 construct: also called cyno FcgRIIa2; cynoFcγRIIa2
T3 chain: T2 chain with I127K, K130N, P133H, R142Q

T4: human FcγRIIb extracellular domain with C-terminal His-tag (human, UniProt P31994 43-217)
T4 construct: also called human FcgRIIb
T4 sequence: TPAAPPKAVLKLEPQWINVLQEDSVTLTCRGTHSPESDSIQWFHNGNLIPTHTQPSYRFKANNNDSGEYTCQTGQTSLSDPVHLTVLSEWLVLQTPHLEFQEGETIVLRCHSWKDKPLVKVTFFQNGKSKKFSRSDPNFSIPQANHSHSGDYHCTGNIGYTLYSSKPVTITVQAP

T5: cynomolgus monkey FcγRIIa1 extracellular domain with C-terminal His-tag (cynomolgus monkey)
T5 construct: also called cyno FcgRIIa1; cynoFcγRIIa1
T5 chain: T2 chain with T95P, A121T, S128A, P133H, N135D

T6: human FcγRIIaH extracellular domain with C-terminal His-tag (human, UniProt P12318 34-217)
T6 construct: also called human FcgRIIaH; FcγRIIa (type H)
T6 sequence: T1 chain with R134H

T7: cynomolgus monkey FcγRIIIaS extracellular domain with C-terminal His-tag (cynomolgus monkey, UniProt Q8SPW2 21-206 at identity 1.00))
T7 construct: also called cyno FcgRIIIaS; cynoFcγRIIIaS
T7 chain: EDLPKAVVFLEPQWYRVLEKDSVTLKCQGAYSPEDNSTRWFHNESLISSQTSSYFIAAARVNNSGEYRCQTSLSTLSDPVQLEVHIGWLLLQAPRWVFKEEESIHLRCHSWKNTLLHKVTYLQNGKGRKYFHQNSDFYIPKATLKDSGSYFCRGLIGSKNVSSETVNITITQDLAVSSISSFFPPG

T8: cynomolgus monkey FcγRIIb extracellular domain with C-terminal His-tag (cynomolgus monkey)
T8 construct: also called cyno FcgRIIb; cynoFcγRIIb
T8 chain: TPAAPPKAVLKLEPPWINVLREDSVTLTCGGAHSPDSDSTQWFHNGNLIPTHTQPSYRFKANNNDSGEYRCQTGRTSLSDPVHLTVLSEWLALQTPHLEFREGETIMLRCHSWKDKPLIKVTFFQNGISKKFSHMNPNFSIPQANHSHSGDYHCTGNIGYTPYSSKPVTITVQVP

B1: M103205H795-MY533/M103202L889-SK1 (antibody, human IgG1, kappa)
heavy: QVTLKESGPVLVKPTETLTLTCTVSGIDLSHDDISWVRQAPGKGLEWVGIISYAGSTYYASWAKGRLTISKDTSKNQVVLTMTNMDPVDTATYYCARGVPAYSHGGDLWGQGTLVTVSSASTKGPSVFPLAPSSKSTSGGTAALGCLVKDYFPEPVTVSWNSGALTSGVHTFPAVLQSSGLYSLSSVVTVPSSSLGTQTYICNVNHKPSNTKVDKKVEPKSCDKTHTCPPCPAPEWLTGPVVFLFPPKPKDTLMISRTPEVTCVVVDVSDEDPEVKFNWYVDGVEVHNAKTKPREELYNSTYRVVSVLTVLHQDWLNGKEYKCKVSNKALPKPIEKTISKAKGQPREPQVYTLPPSREEMTKNQVSLTCLVKGFYPSDIAVEWESNGQPENNYKTTPPVLDSDGSFFLYSKLTVDKSRWQQGNVFSCSVMHEALHNHYTQKSLSLSP
light: DIVMTQSPATLSLSPGERATLSCTSSQSVYHANWLSWFQQKPGQPPKLLIYWASTLAYGVPSRFSGSGSGTDFTLTISSLQPEDAATYYCAGGYGGGRYAFGQGTKVEIKRTVAAPSVFIFPPSDEQLKSGTASVVCLLNNFYPREAKVQWKVDNALQSGNSQESVTEQDSKDSTYSLSSTLTLSKADYEKHKVYACEVTHQGLSSPVTKSFNRGEC
notes: Substitutions introduced into M103205H795-SG1, expressed with M103202L889-SK1 as light chain; EU numbering
B2: M103205H795-MY534/M103202L889-SK1 (antibody, human IgG1, kappa)
heavy: B1 heavy with W236L
light: B1 light
notes: as for B1
B3: M103205H795-MY537/M103202L889-SK1 (antibody, human IgG1, kappa)
heavy: B1 heavy with A233G
light: B1 light
notes: as for B1
B4: M103205H795-MY535/M103202L889-SK1 (antibody, human IgG1, kappa)
heavy: B1 heavy with A233G, V241S, L297Q
light: B1 light
notes: as for B1
B5: M103205H795-MY536/M103202L889-SK1 (antibody, human IgG1, kappa)
heavy: B1 heavy with A233G, L297Q
light: B1 light
notes: as for B1
B6: M103205H795-MY538/M103202L889-SK1 (A231G/L234W/G236T/H268D/Q295L/A330K) (antibody, human IgG1, kappa)
heavy: B1 heavy with A233G, V241S
light: B1 light
notes: as for B1

One may read the Kd as the concentration at which binding is half-saturated.

Changes are numbered by the printed parent chain. Names may count otherwise.

The target in one assay is T1, human FcγRIIaR extracellular domain …. Briefly: SPR (BIACORE), antibody captured, FcgR analyte. On the procedure: (§1) The kinetic analysis of interactions between these antibodies and FcγR was carried out using BIACORE® T200 or BIACORE® 4000 (GE Healthcare). HBS-EP+ (GE Healthcare) was used as the running buffer, and the measurement temperature was set to 25° C. A chip produced by immobilizing Protein A. Protein A/G or mouse anti-human IgG kappa light chain (BD Biosciences) onto a Series S Sensor Chip CM4 or CM5 (GE Healthcare) by the amine-coupling method was used. […] After the measurement, the antibody captured on the chip was washed off by allowing reaction with 10 mM glycine-HCl, pH1.5 and 25 mM NaOH so that the chip was regenerated and used repeatedly. The sensorgrams obtained as measurement results were analyzed by the 1:1 Langmuir binding model using the BIACORE® Evaluation Software to calculate the binding rate constant ka (L/mol/s) and dissociation rate constant kd (l/s), and the dissociation constant KD (mol/L) was calculated from these values. […] Regarding such interactions, KD values were calculated using the following 1:1 binding model described in BIACORE® T100 Software Handbook BR1006-48 Edition AE.
(§2) The behavior of interacting molecules according to the 1:1 binding model on BIACORE® can be described by Equation 1: Req=C·R max/(KD+C)+RI, wherein, Req is a plot of steady-state binding levels to analyte concentration. C is concentration, RI is bulk refractive index contribution in the sample, and Rmax is analyte binding capacity of the surface. When this equation is rearranged, KD can be expressed as Equation 2: KD=C·Rmax/(Req−RI)−C. KD can be calculated by substituting the values of Rmax, RI, and C into Equation 1 or Equation 2. From the current measurement conditions, RI=0, C=2 μmol/L can be used.
In general terms: In SPR one partner is held on a chip, and binding of the other changes the refractive index at the surface.
For B1, the Kd turned out to be 0.2 µM.

As for B2, the affinity, expressed as Kd, was 0.19 µM.

In turn, B3 yielded a Kd of 0.37 µM.

B4: the Kd came out at 0.64 µM.

Take B5: binding was put at a Kd of 0.22 µM.

As to B6, the Kd was 0.62 µM.

A further assay deals with T2, cynomolgus monkey FcγRIIa3 …. Briefly: SPR (BIACORE), antibody captured, FcgR analyte. The procedure: as §1, §2
B1 registered a Kd of 1.2 µM.

The molecule B2 registered a Kd of 1.2 µM.

Molecule B3 came in with a dissociation constant (Kd) of 1.4 µM.

Turning to B4, the Kd is 3 µM.

Turning to B5, binding was characterised by a dissociation constant (Kd) of 0.98 µM.

As for B6, the Kd turned out to be 3 µM.

For the next assay, the target named is T9, human FcγRIIIaV extracellular domain with C-terminal His-tag (human, UniProt P08637 17-208).
T9 construct: also called human FcgRIIIaV
T9 sequence (P08637 17-208 F176V): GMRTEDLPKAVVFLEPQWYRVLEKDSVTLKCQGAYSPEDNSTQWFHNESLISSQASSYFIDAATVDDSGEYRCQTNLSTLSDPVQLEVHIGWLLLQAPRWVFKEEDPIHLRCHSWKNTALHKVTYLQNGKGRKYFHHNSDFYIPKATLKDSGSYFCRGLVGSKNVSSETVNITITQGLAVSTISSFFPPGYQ
Kind of assay: SPR (BIACORE), antibody captured, FcgR analyte. On the procedure: as §1, §2
Take B1: the Kd came out at 1.8 µM.

Take B2: the Kd was 4.3 µM.

In the case of B3, the Kd is 3.3 µM.

For B4, binding was put at a Kd of 3.2 µM.

B5: the dissociation constant (Kd) came out at 3.7 µM.

In turn, B6 showed a Kd of 5.7 µM.

The next assay concerns the target T3, cynomolgus monkey FcγRIIa2 …. Briefly: SPR (BIACORE), antibody captured, FcgR analyte. On the procedure: as §1, §2
B1: the Kd was found to be 0.73 µM.

The molecule B2 showed a Kd of 1.3 µM.

Molecule B3 had a Kd of 1.1 µM.

As to B4, binding was put at a Kd of 1.4 µM.

For the molecule B5, the Kd came to 1.1 µM.

Consider B6, for which the Kd turned out to be 1.1 µM.

The next assay addresses T4, human FcγRIIb extracellular domain with …. Kind of assay: SPR (BIACORE), antibody captured, FcgR analyte. On the procedure: as §1, §2
B1 had a Kd of 0.95 µM.

As for B2, the Kd was determined as 0.12 µM.

The molecule B3 had a Kd of 1 µM.

Take B4: the Kd stood at 1.9 µM.

As for B5, the affinity, expressed as Kd, was 0.99 µM.

In turn, B6 gave a Kd of 1.3 µM.

Another assay addresses T5, cynomolgus monkey FcγRIIa1 …. Briefly: SPR (BIACORE), antibody captured, FcgR analyte. The procedure: as §1, §2
B1 showed a dissociation constant Kd of 0.8 µM.

In the case of B2, the Kd was found to be 1.3 µM.

B3 displayed a Kd of 1.2 µM.

Consider B4, for which the Kd is 1.3 µM.

The molecule B5 registered a Kd of 1.3 µM.

As for B6, the affinity, expressed as Kd, was 0.96 µM.

The target in the next assay is T6, human FcγRIIaH extracellular domain …. Briefly: SPR (BIACORE), antibody captured, FcgR analyte. On the procedure:
as §1, §2
B1 returned a Kd of 0.21 µM.

Molecule B2 gave a Kd of 0.17 µM.

With B3, the Kd amounted to 0.28 µM.

Take B4: the Kd was 0.39 µM.

Take B5: the affinity, expressed as Kd, was 0.29 µM.

For the molecule B6, binding was characterised by a dissociation constant (Kd) of 0.25 µM.

The target of a further assay is T7, cynomolgus monkey FcγRIIIaS …. Briefly: SPR (BIACORE), antibody captured, FcgR analyte. The procedure: as §1, §2
B1 returned a Kd of 1.1 µM.

As for B2, the Kd was determined as 1.7 µM.

Molecule B3 registered a Kd of 1.5 µM.

For B4, the Kd was determined as 2.1 µM.

In turn, B5 showed a Kd of 1.6 µM.

Molecule B6 showed a Kd of 2.4 µM.

The target of a further assay is T8, cynomolgus monkey FcγRIIb extracellular …. Briefly: SPR (BIACORE), antibody captured, FcgR analyte. The procedure:
as §1, §2
B1 gave a Kd of 0.25 µM.

With B2, the affinity, expressed as Kd, was 0.42 µM.

For the molecule B3, binding was put at a Kd of 0.32 µM.

Take B4: binding was characterised by a dissociation constant (Kd) of 0.41 µM.

Molecule B5 returned a Kd of 0.4 µM.

B6 had an equilibrium dissociation constant (Kd) of 0.28 µM.
